Target: glucagon receptor (UniProt P47871)
Assay: cell-based or functional assay

Sequence of glucagon receptor (P47871 26-477 limits assumed): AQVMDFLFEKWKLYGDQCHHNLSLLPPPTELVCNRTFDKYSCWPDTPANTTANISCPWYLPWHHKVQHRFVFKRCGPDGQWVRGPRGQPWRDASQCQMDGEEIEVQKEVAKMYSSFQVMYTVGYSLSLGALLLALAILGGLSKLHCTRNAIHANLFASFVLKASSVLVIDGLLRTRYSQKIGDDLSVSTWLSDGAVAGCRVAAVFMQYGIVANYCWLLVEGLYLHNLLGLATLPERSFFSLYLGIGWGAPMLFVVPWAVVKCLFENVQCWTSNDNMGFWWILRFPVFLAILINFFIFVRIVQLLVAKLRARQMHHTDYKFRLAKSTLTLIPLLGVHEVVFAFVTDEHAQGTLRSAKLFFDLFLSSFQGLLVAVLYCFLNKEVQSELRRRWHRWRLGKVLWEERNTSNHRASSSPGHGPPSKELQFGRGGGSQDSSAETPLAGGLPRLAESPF

Substance: Liraglutide (peptide)
- % relative activity: 0.04%

Source: patent publication US20120172295A1
